One test has as its target T1, hGLP-1R (human, UniProt P43220).
T1 chain: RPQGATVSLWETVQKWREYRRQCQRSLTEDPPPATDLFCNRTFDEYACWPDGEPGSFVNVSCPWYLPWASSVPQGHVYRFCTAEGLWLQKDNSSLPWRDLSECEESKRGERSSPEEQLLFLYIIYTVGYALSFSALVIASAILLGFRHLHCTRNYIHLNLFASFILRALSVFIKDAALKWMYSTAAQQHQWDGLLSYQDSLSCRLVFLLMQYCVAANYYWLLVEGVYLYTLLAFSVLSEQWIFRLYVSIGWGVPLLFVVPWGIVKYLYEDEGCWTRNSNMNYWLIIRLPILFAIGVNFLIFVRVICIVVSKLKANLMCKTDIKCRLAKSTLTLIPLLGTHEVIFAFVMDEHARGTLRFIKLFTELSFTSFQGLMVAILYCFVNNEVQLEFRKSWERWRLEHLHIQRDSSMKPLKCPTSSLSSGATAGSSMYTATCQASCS
Briefly: competition, [125I]-GLP-1 radioligand.

The next test addresses T2, hGIPR (human, UniProt P48546).
T2 chain: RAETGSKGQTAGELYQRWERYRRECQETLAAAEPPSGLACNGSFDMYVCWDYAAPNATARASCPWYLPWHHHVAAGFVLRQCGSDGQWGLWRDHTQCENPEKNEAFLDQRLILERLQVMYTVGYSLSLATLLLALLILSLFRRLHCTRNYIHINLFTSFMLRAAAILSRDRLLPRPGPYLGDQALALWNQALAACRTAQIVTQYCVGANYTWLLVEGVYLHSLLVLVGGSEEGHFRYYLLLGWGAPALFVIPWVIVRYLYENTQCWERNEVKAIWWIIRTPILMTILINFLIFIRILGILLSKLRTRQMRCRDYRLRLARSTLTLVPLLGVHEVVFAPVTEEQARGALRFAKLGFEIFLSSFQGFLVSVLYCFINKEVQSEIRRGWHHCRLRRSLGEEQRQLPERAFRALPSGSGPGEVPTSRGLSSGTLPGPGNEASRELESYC
Briefly: competition, [125I]-GIP radioligand.

The next test addresses hGCGR (human, UniProt P47871). Briefly: competition, [125I]-glucagon radioligand.

Starred links: 1 amine or outer side, 2 acyl side, 3 side chain; linkers in the order of their positions; H or OH if unused. Non-standard residues stand in square brackets, D forms with d. Groups on a side chain read outwards from the residue. No end group written: not given here. *: point of attachment. C20 diacid = O=C(O)CCCCCCCCCCCCCCCCCCC(=O)*; γGlu = O=C(O)[C@H](CCC(=O)[*:2])N[*:1]; AEEA = NCCOCCOCC(=O)O; Aib = CC(C)(N)C(=O)O

Among the data in patent US20260315572 (published 2026) are Ki values, retold here.

Usually Ki stands for a dissociation constant, usually derived from enzyme kinetics or from competition with a known ligand. The low end stands for higher affinity, the high end for lower affinity.

Sequence of hGCGR (P47871 26-477): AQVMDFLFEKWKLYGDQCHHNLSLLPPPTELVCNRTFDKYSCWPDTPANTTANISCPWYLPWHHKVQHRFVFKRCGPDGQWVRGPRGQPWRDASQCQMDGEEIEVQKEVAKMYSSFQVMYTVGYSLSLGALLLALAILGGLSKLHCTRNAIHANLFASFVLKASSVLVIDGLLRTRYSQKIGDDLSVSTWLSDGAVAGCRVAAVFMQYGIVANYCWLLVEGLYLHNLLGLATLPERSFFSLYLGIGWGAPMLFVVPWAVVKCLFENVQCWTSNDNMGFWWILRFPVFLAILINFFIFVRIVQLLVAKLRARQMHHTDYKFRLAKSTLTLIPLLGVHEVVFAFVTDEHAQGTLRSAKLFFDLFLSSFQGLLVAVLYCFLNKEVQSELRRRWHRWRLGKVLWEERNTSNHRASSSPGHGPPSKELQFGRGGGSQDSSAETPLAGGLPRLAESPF

B1: Example 1 (peptide)
chain: Y[Aib]EGTFTSDYSI[Aib]LDKIAQK([AEEA-AEEA-γGlu-C20 diacid])AFVQWLIAGGP-OH
modifications: N-terminus assumed
SMILES: CC[C@H](C)[C@H](NC(=O)[C@H](CC(C)C)NC(=O)[C@H](Cc1c[nH]c2ccccc12)NC(=O)[C@H](CCC(N)=O)NC(=O)[C@@H](NC(=O)[C@H](Cc1ccccc1)NC(=O)[C@H](C)NC(=O)[C@H](CCCCNC(=O)COCCOCCNC(=O)COCCOCCNC(=O)CC[C@H](NC(=O)CCCCCCCCCCCCCCCCCCC(=O)O)C(=O)O)NC(=O)[C@H](CCC(N)=O)NC(=O)[C@H](C)NC(=O)[C@@H](NC(=O)[C@H](CCCCN)NC(=O)[C@H](CC(=O)O)NC(=O)[C@H](CC(C)C)NC(=O)C(C)(C)NC(=O)[C@@H](NC(=O)[C@H](CO)NC(=O)[C@H](Cc1ccc(O)cc1)NC(=O)[C@H](CC(=O)O)NC(=O)[C@H](CO)NC(=O)[C@@H](NC(=O)[C@H](Cc1ccccc1)NC(=O)[C@@H](NC(=O)CNC(=O)[C@H](CCC(=O)O)NC(=O)C(C)(C)NC(=O)[C@@H](N)Cc1ccc(O)cc1)[C@@H](C)O)[C@@H](C)O)[C@@H](C)CC)[C@@H](C)CC)C(C)C)C(=O)N[C@@H](C)C(=O)NCC(=O)NCC(=O)N1CCC[C@H]1C(=O)O
Consider B1, for which the Ki with hGLP-1R is 10.9 nM; with hGIPR it was 0.32 nM; in the test with hGCGR, > 240 nM.
